This is an account of results in US20260209316A1 (US Dept. of Health and Human Services, published 2026).

Test [1] has as its target T1, full-length Sudan GP (GPFL) (Sudan virus (SUDV), UniProt Q7T9D9 33-650).
T1 construct: also called Sudan GPFL; GP(S)FL
T1 sequence: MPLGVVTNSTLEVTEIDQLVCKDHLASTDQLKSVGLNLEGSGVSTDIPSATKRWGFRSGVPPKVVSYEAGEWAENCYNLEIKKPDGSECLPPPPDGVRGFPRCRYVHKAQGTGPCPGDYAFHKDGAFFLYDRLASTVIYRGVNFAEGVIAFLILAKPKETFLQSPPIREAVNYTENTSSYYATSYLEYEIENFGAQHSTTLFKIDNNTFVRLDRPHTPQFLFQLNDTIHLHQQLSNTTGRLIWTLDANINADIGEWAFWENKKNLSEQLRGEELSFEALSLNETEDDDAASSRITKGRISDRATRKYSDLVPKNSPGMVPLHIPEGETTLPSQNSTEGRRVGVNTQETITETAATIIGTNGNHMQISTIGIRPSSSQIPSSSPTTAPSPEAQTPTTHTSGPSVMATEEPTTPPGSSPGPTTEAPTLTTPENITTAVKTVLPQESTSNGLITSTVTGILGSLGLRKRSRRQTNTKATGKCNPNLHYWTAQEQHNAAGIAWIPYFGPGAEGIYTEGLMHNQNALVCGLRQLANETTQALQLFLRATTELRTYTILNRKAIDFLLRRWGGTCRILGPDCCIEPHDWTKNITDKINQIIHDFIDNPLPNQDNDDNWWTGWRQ
The test is described as follows: ELISA on coated GP.

Test [2] has as its target T2, SUDV GP on pseudotyped lentiviral vector (Sudan virus (SUDV), UniProt Q7T9D9 33-676).
T2 sequence: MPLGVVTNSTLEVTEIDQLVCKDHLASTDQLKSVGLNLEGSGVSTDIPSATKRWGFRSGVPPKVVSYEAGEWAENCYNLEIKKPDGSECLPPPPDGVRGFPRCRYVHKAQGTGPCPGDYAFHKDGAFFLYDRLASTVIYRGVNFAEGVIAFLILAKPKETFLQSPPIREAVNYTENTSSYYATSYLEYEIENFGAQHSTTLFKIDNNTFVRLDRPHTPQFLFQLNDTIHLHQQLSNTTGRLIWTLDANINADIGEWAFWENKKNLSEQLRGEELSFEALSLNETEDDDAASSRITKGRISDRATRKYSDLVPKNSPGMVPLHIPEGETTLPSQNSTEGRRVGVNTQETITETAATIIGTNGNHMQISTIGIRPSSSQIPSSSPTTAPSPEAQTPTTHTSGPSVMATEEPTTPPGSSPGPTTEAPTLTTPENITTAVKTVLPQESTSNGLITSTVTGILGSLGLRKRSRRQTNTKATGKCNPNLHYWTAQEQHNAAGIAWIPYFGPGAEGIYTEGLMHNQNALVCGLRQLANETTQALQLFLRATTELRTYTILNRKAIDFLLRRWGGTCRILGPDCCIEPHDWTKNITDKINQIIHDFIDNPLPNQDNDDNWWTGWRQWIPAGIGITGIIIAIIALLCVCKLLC
The test is described as follows: cell-based or functional assay.

The target of test [3] is T1, full-length Sudan GP (GPFL). Briefly: ELISA on coated GP. This is another data set of the same source.
In test [4] the target is T2, SUDV GP on pseudotyped lentiviral vector. Briefly: cell-based or functional assay. This is another data set of the same source.

Read-outs that look alike come from different tables or passages of the source.

B1: antibody 354S (antibody, V domains shown)
VH: QVQLVQSGAEVKKPGASVKVSCKASGYSFASYYIHWVRQAPGQGLEWMGIINPSGGTTSYAQKFQGRVTMTRDTSTSTVYMELSSLGSEDTAVYYCARIVDRVTIYLNGVDNYWGQGTLVTVSS
VL: EIVMTQSPATLSVSPGERVTLSCRASQSVSSNLAWFQQTPGQAPRLLIYGASTRASGVPARFSGSGSGTEFTLTISSLQSEDFAVYYCLQYNNWPPGWKYGFGQGTKLEIK
The molecule B1 displayed an EC50 in test [1] of 0.0613 µg/mL. Moreover, in test [2], the “IC50, microneutralization of GP-pseudotyped lentiviral vector on HEK293 cells” value (from here on “IC50, microneutralization”) was 0.03 µg/mL.

B2: antibody 578S (antibody, V domains shown)
VH: EVQLVESGGGVVQPGRSLRLSCAASGFTFSSYELHWVRQAPGKGLEWVAVISYDGSSKYYADSLKGRFTISRDNSKNTLSLQMNSLRAEDTAMYYCVRQSEAYCSDGRCDWRRALDIWGQGTMVTVSP
VL: DIQMTQSPSSLSASVGDRVTITCQASQDIKNYLNWYQQKPGKAPKLLIYDVSKLETGVPSRFSGSGSGTDFSFTISSLQPEDIATYYCQQYDNLPSYTFGQGTKLEIK
In test [3], B2 had an EC50 of 0.18 µg/mL. Further, the “IC50, microneutralization” value in test [4] was 1.09 µg/mL.

B3: antibody 503S (antibody, V domains shown)
VH: QVQLVQSGAEVKKPGASVRVSCKASGYTFTSYYMHWVRQAPGQGLEWMGQINPSGGTTRYERKFQGRITVTRDTSTSTVYLELSSLRSEDTASYFCACLRDKVTYYDLWSGVDSVWGQGTLVTVSS
VL: DIQMTQSPSSLSASVGDRVTITCRASQDISTWLAWYQQKPEKAPKSLIYAASTLETGVPSRFSGSGSGTDFTLTISSLQPEDFATYYCEQYNGFPRTFGQGTKLDIK
In test [1], B3 yielded an EC50 of 0.64 µg/mL. Besides, in test [2], the “IC50, microneutralization” value is 0.102 µg/mL.

B4: antibody 294S (antibody, V domains shown)
VH: QVQLQESGPGLVKPSQTLSLTCTVSGGSISSGGYHWSWIRQHPGKGLEWIGNIYYNGRTYYNPSLKSRVTISVDTSENEFSLKLSSVTAADTAVYYCARDRRRPRIGHDYGMDVWGQGTKVIVSS
VL: DIQMTQSPSSLSASVGDRVTISCRASQSISNFLNWYQQKPGQAPKLLIYTASNLQSGVPSRFSGSGSGTDFTLTISSLQPEDFATYYCQQIYNTGMYSFGQGTKLEIKR
In test [1], B4 registered an EC50 of 0.0258 µg/mL. Besides, the “IC50, microneutralization” value in test [2] came out at 0.0192 µg/mL.

B5: antibody 365S (antibody, V domains shown)
VH: EVQLVESGGGLVQPGGSLRLSCAASGLTFSAYEMNWVRQAPGKGLEWVSHITTSGSAIYYADSVKGRFTISRDNAKNSLHLQMNRLRADDTAVYFCARDSTIVQCSGTSCHVSTYSYMDVWGKGTTVTVSS
VL: EIVLTQSPATLSLSPGERATLSCRASQSVTTYLAWYQHKPGQAPRLLIYDASKRATGIPARFSGSGSGTDFTLTISSLEPEDFAVYHCQQRSSWPPITFGQGTRLEIK
As to B5, the EC50 in test [3] was found to be 0.11 µg/mL. Moreover, the “IC50, microneutralization” value in test [4] came out at 0.79 µg/mL.

B6: antibody 405S (antibody, V domains shown)
VH: EVQLVESGGGLIQPGGSLRLSCAASGFTVSSHYMSWVRQAPGKGLEWVSGIYSGGRTHYADSVKGRFTISRDNSKNTLYLQMNSLRADDTAVYSCARGTLLYLYGMDVWGQGTTVTVSS
VL: QSVLTQPPSVSAAPGQRVTISCTGSSSNIGAGYNVHWYQQLPGAAPKLLIYGNTNRPSGVPDRFSGSKSGTSASLAITGLQAEDEADYYCQSFDSSLSGVFGTGTKVTVL
B6 yielded an EC50 in test [3] of 0.06 µg/mL. Besides, the “IC50, microneutralization” value in test [4] was 0.79 µg/mL.

B7: antibody 233S (antibody, V domains shown)
VH: EVQLVESGGGLGQPGGSLRLSCAASGFKFKIFGMNWVRQAPGKGLEWVSYISSRSSIIYYADSVKGRFTISRDDATNSLFLQMNSLRDEDTAMYYCVRDYNLIDFVWGSLFDYWGQGILVTVSS
VL: AIRMTQSPSSLSASTGDSVTITCRASQNIASYLAWYQQIPGKAPKLLIYVASTLQSGVPSRFSGSGSGTDFTLTISSLQSEDFATYYCQQYYRYPPTFGQGTKVEIK
In turn, B7 displayed an EC50 in test [1] of 0.133 µg/mL. Also, in test [2], the “IC50, microneutralization” value was found to be 0.167 µg/mL.

B8: antibody 541S (antibody, V domains shown)
VH: QVQLVQSGAEVKKPGASVKVSCKASGYTFTNYAITWVRQAPGQGLEWMGWISAFNGQINYAQKFQGRVAMTTDTSTSTAYMELRSLRSDDTAVYYCARAPPMWFSGAKFDYWGQGTLVTVSS
VL: QSVLTQPPSVSGTPGQRVTISCSGSSSNIGSNTVNWYQQLPGTAPKLLIYSNDQRPSGVPDRFSGSKSGTSASLAISGLRSEDEADYYCAAWDETLRRVFGGGTRLTVL
Molecule B8 registered an EC50 in test [1] of 0.368 µg/mL. Besides, the “IC50, microneutralization” value in test [2] was 0.478 µg/mL.

B9: antibody 382S (antibody, V domains shown)
VH: QVQLVQSGAEVKKPGSSVKVSCKASGGTFSNYGISWVRQAPGQGLEWMGRNIPIIGIANYAQKFQDRVTITADKSTSTVFMELRSLRYEDTAVYYCARDPLAARRGNWFDPWGQGTLVTVSS
VL: DIQMTQSPSTLSASVGDRVTITCRASQSVSSWLAWYQQKPGKAPKLLIYDASTLQSGVPSRFSGSGSGTEFTLTISSLQPDDFATYYCQQYNSYSYTFGQGTKLEIK
The molecule B9 returned an EC50 in test [3] of 0.35 µg/mL. Also, the “IC50, microneutralization” value in test [4] stood at 0.71 µg/mL.

B10: antibody 573S (antibody, V domains shown)
VH: EVQLVESGGGLVKPGGSLRLSCAASGFTFSSYTMNWVRQAPGKGLEWVSCIRSSSSDKYYADSVKGRFTISRDNTKNSLYLQMNSLRADDTAVYYCARDLGGANNRYYFDYGMDVWGQGTTVTVSS
VL: EIVMTQSPATLSVSPGGRATLSCRASQSVYTNLAWYQQKPGQAPRLLIYDASTRATGIPARFSGSGSGTEFTLTISSLQCEDFAVYYCQHYNNWPLYTFGQGTKLEIK
Take B10: the EC50 in test [1] worked out at 0.221 µg/mL. The “IC50, microneutralization” value in test [2] amounted to 0.188 µg/mL.

B11: antibody 285S (antibody, V domains shown)
VH: QVQLVQSGAEVKKPGSSVKVSCKASGGTFSTYAITWVRQAPGQGLEWMGRIIPILRVANYAQKFQGRVTITADSSTSTAYMELSSLRSEDTAVYYCANLLAYCGGDCRSDYWGQGTLVTVSS
VL: EIVLTQSPGTLSLSPGERATLSCRASQSVKNSYLAWYHQKPGQAPRLLIYGASSRATGIPDRFSGSGSGTDFTLTISRLEPEDFAVYYCQQYGSSLWTFGQGTKVDVK
In test [3], B11 came in with an EC50 of 0.02 µg/mL. For the same molecule, the “IC50, microneutralization” value in test [4] was found to be 0.64 µg/mL.

B12: antibody 241S (antibody, V domains shown)
VH: QVQLVQSGSELKKPGASVKVSCKASGYTFTSYTVNWVRQAPGQGLEWMGWINTNTGNPTYAQGFTGRFVFSSDTSVSTAYLQISDLKAEDTAMYYCARHVAYDLWSGHTVTFDHWGQGTLVTVSS
VL: QSALTQPPSASGSPGQSVTISCTGTSSDVGAYNYVSWYQQHPGKAPKLIIYEVTKRPSGVPDRFSGSKSGNTASLTVSGLQAEDEADYYCSSKAGGKTYVFGTGTKVTVL
On to B12, for which, in test [1], the half-maximal effective concentration (EC50) worked out at 0.232 µg/mL. The “IC50, microneutralization” value in test [2] stood at 0.0275 µg/mL.

B13: antibody 102S (antibody, V domains shown)
VH: EVQLVESGGGLVQPGGSLRLSCSASGFTFHSYDMNWARQAPGKGLEWVSEISSSGQSKNYADSVRGRFTISRDNAKNSLYLQINSLRSEDTAVYYCARVGFVAKFGSDFSITHGTYYLDYWGQGTLVTVSS
VL: QLVLTQSPATLSLSPGERATLSCRASQSVSNYLAWYQQKPGQAPRLLIYDASNRAPGVPARFSGSGSGTDFSLTISSLEPEDFAVYYCLQRSNWPPWTFGQGTKVEIK
With B13, a half-maximal response in test [3] (EC50) required 0.09 µg/mL. Also, in test [4], the “IC50, microneutralization” value amounted to 0.88 µg/mL.
